Holding throughout (experiment): cell-cell binding, flow cytometry; percent of the wild-type pair
On the technique in general: Flow cytometry measures light scatter and fluorescence of single cells or particles in a stream.

The target in one assay is T1, human B7-1 N82E on cells (Homo sapiens, UniProt P33681 35-280).
T1 construct: C-terminally fused to mCherry; also called ASN82 GLU
T1 chain: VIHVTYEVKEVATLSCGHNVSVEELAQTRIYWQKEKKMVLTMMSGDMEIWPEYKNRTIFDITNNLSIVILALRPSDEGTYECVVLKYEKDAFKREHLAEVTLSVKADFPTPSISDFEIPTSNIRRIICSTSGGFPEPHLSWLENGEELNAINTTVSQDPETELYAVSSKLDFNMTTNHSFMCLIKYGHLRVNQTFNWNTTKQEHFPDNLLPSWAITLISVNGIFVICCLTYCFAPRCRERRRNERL

Assay [1] concerns the target T2, human B7-1 K120D on cells (Homo sapiens, UniProt P33681 35-280).
T2 construct: mCherry-tagged point mutant; also called LYS120 ASP
T2 chain: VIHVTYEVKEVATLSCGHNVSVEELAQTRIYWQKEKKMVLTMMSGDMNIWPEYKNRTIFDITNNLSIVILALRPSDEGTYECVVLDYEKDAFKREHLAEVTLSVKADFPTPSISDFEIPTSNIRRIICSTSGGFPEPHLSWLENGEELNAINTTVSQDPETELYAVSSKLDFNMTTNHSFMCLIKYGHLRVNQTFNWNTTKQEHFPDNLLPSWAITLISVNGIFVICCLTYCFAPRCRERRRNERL

Assay [2] deals with T3, human B7-1 (CD80), full length, expressed on HEK 293 cells (Homo sapiens, UniProt P33681 35-280).
T3 construct: also called hB7-1; B7-1-mCherry
T3 sequence: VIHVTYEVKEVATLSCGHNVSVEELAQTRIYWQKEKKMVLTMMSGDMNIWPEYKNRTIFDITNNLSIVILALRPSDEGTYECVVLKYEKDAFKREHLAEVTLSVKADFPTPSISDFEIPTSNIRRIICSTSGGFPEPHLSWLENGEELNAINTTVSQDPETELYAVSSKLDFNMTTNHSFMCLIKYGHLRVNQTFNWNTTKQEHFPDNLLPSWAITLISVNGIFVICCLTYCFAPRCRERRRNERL

Assay [3] addresses T4, human B7-1 K139D on cells (Homo sapiens, UniProt P33681 35-280).
T4 construct: mCherry-tagged point mutant; also called LYS139ASP; LYS139 ASP
T4 chain: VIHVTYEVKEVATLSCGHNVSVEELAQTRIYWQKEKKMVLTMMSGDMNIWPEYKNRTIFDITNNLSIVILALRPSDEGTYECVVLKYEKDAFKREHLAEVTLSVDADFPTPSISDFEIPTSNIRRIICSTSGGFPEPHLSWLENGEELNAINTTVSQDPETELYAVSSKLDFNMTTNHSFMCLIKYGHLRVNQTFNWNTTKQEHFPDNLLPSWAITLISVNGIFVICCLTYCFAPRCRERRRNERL

The target of a further assay is T5, human B7-1 R63D on cells (Homo sapiens, UniProt P33681 35-280).
T5 construct: mCherry-tagged point mutant; also called ARG63 ASP
T5 chain: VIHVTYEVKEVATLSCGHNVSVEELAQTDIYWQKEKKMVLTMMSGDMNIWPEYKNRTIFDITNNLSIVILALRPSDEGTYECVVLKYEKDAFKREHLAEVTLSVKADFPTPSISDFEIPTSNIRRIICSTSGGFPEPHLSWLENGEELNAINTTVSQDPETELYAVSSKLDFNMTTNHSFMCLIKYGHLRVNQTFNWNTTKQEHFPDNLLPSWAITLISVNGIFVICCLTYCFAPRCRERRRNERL

The target in assay [4] is T6, human B7-1 K127D on cells (Homo sapiens, UniProt P33681 35-280).
T6 construct: mCherry-tagged point mutant; also called LYS127 ASP
T6 chain: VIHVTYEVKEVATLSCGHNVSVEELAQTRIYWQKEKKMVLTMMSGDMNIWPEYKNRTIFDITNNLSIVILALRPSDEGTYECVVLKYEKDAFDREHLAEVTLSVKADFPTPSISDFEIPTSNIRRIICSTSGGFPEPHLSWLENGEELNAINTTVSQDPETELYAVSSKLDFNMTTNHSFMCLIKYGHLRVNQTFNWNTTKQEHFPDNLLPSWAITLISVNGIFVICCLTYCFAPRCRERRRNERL

The values that follow come from patent US20240201167A1 (ALBERT EINSTEIN COLLEGE OF MEDICINE, published 2024).

B1: human p75NTR F136H on cells (receptor)
chain: KEACPTGLYTHSGECCKACNLGEGVAQPCGANQTVCEPCLDSVTFSDVVSATEPCKPCTECVGLQSMSAPCVEADDAVCRCAYGYYQDETTGRCEACRVCEAGSGLVHSCQDKQNTVCEECPDGTYSDEANHVDPCLPCTVCEDTERQLRECTRWADAECEEIPGRWITRSTPPEGSDSTAPSTQEPEAPPEQDLIASTVAGVVTTVMGSSQPVVTRGTTDNLIPVYCSILAAVVVGLVAYIAFKRWNSCKQNKQGANSRPVNQTPPPEGEKLHSDSGISVDSQSLHDQQPHTQTASGQALKGDGGLYSSLPPAKREEVEKLLNGSAGDTWRHLAGELGYQPEHIDSFTHEACPVRALLASWATQDSATLDALLAALRRIQRADLVESLCSESTATSPV
notes: Fluorescent-tagged point mutant
On to B1, for which the percent binding with human B7-1 N82E on cells came to 66%; in assay [1], 15%; in assay [2], 90%; in assay [3], 13%; with human B7-1 R63D on cells it was 25%; in assay [4] it was 16%.

B2: human p75NTR F136K on cells (receptor)
chain: KEACPTGLYTHSGECCKACNLGEGVAQPCGANQTVCEPCLDSVTFSDVVSATEPCKPCTECVGLQSMSAPCVEADDAVCRCAYGYYQDETTGRCEACRVCEAGSGLVKSCQDKQNTVCEECPDGTYSDEANHVDPCLPCTVCEDTERQLRECTRWADAECEEIPGRWITRSTPPEGSDSTAPSTQEPEAPPEQDLIASTVAGVVTTVMGSSQPVVTRGTTDNLIPVYCSILAAVVVGLVAYIAFKRWNSCKQNKQGANSRPVNQTPPPEGEKLHSDSGISVDSQSLHDQQPHTQTASGQALKGDGGLYSSLPPAKREEVEKLLNGSAGDTWRHLAGELGYQPEHIDSFTHEACPVRALLASWATQDSATLDALLAALRRIQRADLVESLCSESTATSPV
notes: as for B1
For the molecule B2, the percent binding is 77% in the assay with human B7-1 N82E on cells; 16% in assay [1]; 81% in assay [2]; 18% in assay [3]; 29% with human B7-1 R63D on cells; 23% in assay [4].

B3: human p75NTR L165H on cells (receptor)
chain: KEACPTGLYTHSGECCKACNLGEGVAQPCGANQTVCEPCLDSVTFSDVVSATEPCKPCTECVGLQSMSAPCVEADDAVCRCAYGYYQDETTGRCEACRVCEAGSGLVFSCQDKQNTVCEECPDGTYSDEANHVDPCHPCTVCEDTERQLRECTRWADAECEEIPGRWITRSTPPEGSDSTAPSTQEPEAPPEQDLIASTVAGVVTTVMGSSQPVVTRGTTDNLIPVYCSILAAVVVGLVAYIAFKRWNSCKQNKQGANSRPVNQTPPPEGEKLHSDSGISVDSQSLHDQQPHTQTASGQALKGDGGLYSSLPPAKREEVEKLLNGSAGDTWRHLAGELGYQPEHIDSFTHEACPVRALLASWATQDSATLDALLAALRRIQRADLVESLCSESTATSPV
notes: Fluorescent-tagged point mutant; also called LEU165H*
As to B3, the percent binding amounted to 15% with human B7-1 N82E on cells; 19% in assay [1]; 64% in assay [2]; 25% in assay [3]; 26% with human B7-1 R63D on cells; 25% in assay [4].

B4: human p75NTR P150K on cells (receptor)
chain: KEACPTGLYTHSGECCKACNLGEGVAQPCGANQTVCEPCLDSVTFSDVVSATEPCKPCTECVGLQSMSAPCVEADDAVCRCAYGYYQDETTGRCEACRVCEAGSGLVFSCQDKQNTVCEECKDGTYSDEANHVDPCLPCTVCEDTERQLRECTRWADAECEEIPGRWITRSTPPEGSDSTAPSTQEPEAPPEQDLIASTVAGVVTTVMGSSQPVVTRGTTDNLIPVYCSILAAVVVGLVAYIAFKRWNSCKQNKQGANSRPVNQTPPPEGEKLHSDSGISVDSQSLHDQQPHTQTASGQALKGDGGLYSSLPPAKREEVEKLLNGSAGDTWRHLAGELGYQPEHIDSFTHEACPVRALLASWATQDSATLDALLAALRRIQRADLVESLCSESTATSPV
notes: as for B1
On to B4, for which the percent binding is 13% with human B7-1 N82E on cells; 17% in assay [1]; 69% in assay [2]; 11% in assay [3]; 14% in the assay with human B7-1 R63D on cells; 15% in assay [4].

B5: human p75NTR L165K on cells (receptor)
chain: KEACPTGLYTHSGECCKACNLGEGVAQPCGANQTVCEPCLDSVTFSDVVSATEPCKPCTECVGLQSMSAPCVEADDAVCRCAYGYYQDETTGRCEACRVCEAGSGLVFSCQDKQNTVCEECPDGTYSDEANHVDPCKPCTVCEDTERQLRECTRWADAECEEIPGRWITRSTPPEGSDSTAPSTQEPEAPPEQDLIASTVAGVVTTVMGSSQPVVTRGTTDNLIPVYCSILAAVVVGLVAYIAFKRWNSCKQNKQGANSRPVNQTPPPEGEKLHSDSGISVDSQSLHDQQPHTQTASGQALKGDGGLYSSLPPAKREEVEKLLNGSAGDTWRHLAGELGYQPEHIDSFTHEACPVRALLASWATQDSATLDALLAALRRIQRADLVESLCSESTATSPV
notes: Fluorescent-tagged point mutant; also called LEU165K*
As to B5, the percent binding in the assay with human B7-1 N82E on cells amounted to 11%; in assay [1], 20%; in assay [2], 83%; in assay [3], 19%; with human B7-1 R63D on cells, 18%; in assay [4], 19%.

B6: human p75NTR P150H on cells (receptor)
chain: KEACPTGLYTHSGECCKACNLGEGVAQPCGANQTVCEPCLDSVTFSDVVSATEPCKPCTECVGLQSMSAPCVEADDAVCRCAYGYYQDETTGRCEACRVCEAGSGLVFSCQDKQNTVCEECHDGTYSDEANHVDPCLPCTVCEDTERQLRECTRWADAECEEIPGRWITRSTPPEGSDSTAPSTQEPEAPPEQDLIASTVAGVVTTVMGSSQPVVTRGTTDNLIPVYCSILAAVVVGLVAYIAFKRWNSCKQNKQGANSRPVNQTPPPEGEKLHSDSGISVDSQSLHDQQPHTQTASGQALKGDGGLYSSLPPAKREEVEKLLNGSAGDTWRHLAGELGYQPEHIDSFTHEACPVRALLASWATQDSATLDALLAALRRIQRADLVESLCSESTATSPV
notes: as for B1
B6: the percent binding worked out at 10% with human B7-1 N82E on cells; 16% in assay [1]; 38% in assay [2]; 14% in assay [3]; 13% in the assay with human B7-1 R63D on cells; 11% in assay [4].
